What was measured:
human cathepsin V = biological target: T1, human cathepsin V (Homo sapiens, UniProt O60911); test: Protease specificity of Spi2A: cathepsin V; assay type: biochemical; details: protease 20 nM, Spi2A 200 nM, 1 h at 37° C; FIG. 6B
T1 construct: made in house
Experimental: (§1) Protease specificity of Spi2A. RelA^−/− MEFs were transduced with retrovirus encoding Spi2A with a C-terminal 3×FLAG epitope tag and Spi2A-3×FLAG purified using a method described previously (Cooley et al., 1998). Briefly, cells (3×10^9) were lysed and Spi2A-3×FLAG (75 μg) purified by batch Q-Fast Flow ion-exchange chromatography (Pharmacia Biotech) after elution at 160-220 mM NaCl followed by anti-FLAG antibody columns, performed according to manufacturer's instructions (Sigma-Aldrich). Spi2A-3×FLAG was dialysed into PBS and stored as aliquots at −80° C. until needed.
(§2) Proteases were purchases from the manufacturers (Calbiochem or Athens Research and Technology) except granzymes A and B which were purified as described (Hanna et al., 1993) and cathespin V and K, which were purified as described (Bromme et al., 1999; Linnevers et al., 1997). Proteases (20 nM) were incubated in the appropriate assay buffer with Spi2A at 200 nM (at least 10-fold excess of inhibitor to maintain pseudo-first order conditions) for 1 h at 37° C. Control samples included only the enzyme, without the inhibitor. At the end of 1 h protease activity was assayed. […] Substrate hydrolysis was measured in a fluorescence microtiter plate reader (Spectramax Gemini XS, Molecular Devices). Percentage inhibition was calculated from the residual enzyme activity compared to no Spi2A controls. […]

caspase 3 = biological target: T2, caspase 3 (Homo sapiens, UniProt P42574); test: Protease specificity of Spi2A: caspase 3; assay type: biochemical; details: FIG. 6B
T2 construct: purchased Calbiochem or Athens Research and Technology
T2 sequence (P42574 29-175 limits assumed): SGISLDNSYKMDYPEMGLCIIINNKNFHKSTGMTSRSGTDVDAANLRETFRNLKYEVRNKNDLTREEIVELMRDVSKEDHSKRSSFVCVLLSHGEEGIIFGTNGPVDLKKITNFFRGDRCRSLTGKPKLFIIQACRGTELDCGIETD
T2 sequence (P42574 176-277 limits assumed): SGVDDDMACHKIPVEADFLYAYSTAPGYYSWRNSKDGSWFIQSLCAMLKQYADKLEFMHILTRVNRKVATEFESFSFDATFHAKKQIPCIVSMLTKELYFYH
Experimental: as §1, §2

cathepsin B = biological target: T3, cathepsin B (Homo sapiens, UniProt P07858); test: Protease specificity of Spi2A: cathepsin B; assay type: biochemical; details: protease 20 nM, Spi2A 200 nM, 1 h at 37° C; FIG. 6B
T3 construct: purchased Calbiochem or Athens Research and Technology
Experimental: as §1, §2

NF-κB = NF-κB activation, EMSA, RelA^−/− MEFs; assay type: cell-based, mouse; details: TNF-α stimulation
Experimental: The possibility that Spi2A protects from TNF-α-induced apoptosis by directly activating NF-κB was examined. Therefore, using electrophoretic mobility shift assays (EMSAs), studies were conducted to determine whether Spi2A itself promotes NF-κB activation in nuclei from Rel A^−/− MEFs transduced with Spi2A or whether the abrogation of Spi2A mRNA up-regulation by Spi2A antisense message inhibits NF-κB activation in Rel A^+/+ MEFs. […] In Rel A^+/+ MEFs, super-shift analysis confirmed the induction of p50/Rel A by TNF-α. […] Thus, the anti-apoptotic activity of Spi2A is unlikely to be mediated through the modulation of NF-κB activation.

caspase 8 = biological target: T4, caspase 8 (Homo sapiens, UniProt Q14790); test: Protease specificity of Spi2A: caspase 8; assay type: biochemical; details: FIG. 6B
T4 construct: purchased Calbiochem or Athens Research and Technology
Experimental: as §1, §2

RelA^−/− MEFs = test: Lysosome internal pH (acridine orange, flow cytometry), RelA^−/− MEFs; assay type: cell-based, mouse; details: TNF-α 0.2 ng/ml, CHX 0.1 μg/ml; FIG. 8
Experimental: FIG. 8. Spi2A offers partial protection of lysosomal de-acidification in […]. RelA^−/− MEFs were transduced by retrovirus encoding GFP alone or Spi2A as indicated by the percentage AO-low cells after treatment with TNF-α (0.2 ng/ml) and CHX (0.1 μg/ml). The percentage of intact lysosomes was determined by staining with AO as has been described previously (Zhao et al., 2000). Briefly, cells were incubated with AO (5 μg/ml), washed and collected for flow cytometric assessment of uptake into intact lysosomes as indicated by red fluorescence (FL3 channel).
The inhibitory reaction was too fast to be measured using our conventional spectrophotometer. […] Lysosome internal pH was measured by staining with the weak basic, lysosomotropic dye—acridine orange (AO)— and flow cytometry (Zhao et al., 2000). Increase in lysosomal pH results a corresponding decrease in AO red fluorescence and the appearance of AO-low cells. It was shown that TNF-R1 cross-linking results in the appearance of AO-low cells in Rel A^−/− MEFs transduced with control retrovirus (GFP) (Supplementary FIG. 4). […] The appearance of AO-low cells can be interpreted as lysosomal rupture, and so it is possible that Spi2A in some way protects lysosomes from damage induced by TNF-α.

T1 sequence (O60911 114-334): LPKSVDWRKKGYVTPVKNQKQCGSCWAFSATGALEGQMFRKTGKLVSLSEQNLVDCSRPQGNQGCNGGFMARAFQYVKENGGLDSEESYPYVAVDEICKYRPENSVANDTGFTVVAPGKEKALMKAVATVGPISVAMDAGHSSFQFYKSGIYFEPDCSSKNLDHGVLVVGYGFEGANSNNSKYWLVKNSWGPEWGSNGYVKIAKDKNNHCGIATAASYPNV
T4 sequence (Q14790 217-374 limits assumed, species assumed): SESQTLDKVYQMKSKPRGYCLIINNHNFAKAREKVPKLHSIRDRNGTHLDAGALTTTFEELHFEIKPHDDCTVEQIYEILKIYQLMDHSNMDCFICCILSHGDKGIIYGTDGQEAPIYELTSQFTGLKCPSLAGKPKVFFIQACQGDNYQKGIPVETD
T4 sequence (Q14790 385-479 limits assumed, species assumed): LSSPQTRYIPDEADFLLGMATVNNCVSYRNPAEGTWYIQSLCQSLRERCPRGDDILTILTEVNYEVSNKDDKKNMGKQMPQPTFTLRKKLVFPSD

B1: Spi2A: murine Spi2A polypeptide, SEQ ID NO:2; purified as C-terminal 3×FLAG protein or expressed from MIGR1 retrovirus in cells and bone-marrow chimeras (protein, listed as Mus musculus)
chain: MAGVSPAVFGCPDVTLGRNTAVREVQENVTSVDSLTLVSSNTDFAFSLYRKLVLKNPDENVVFSPFSICTALALLSLGAKSNTLKEILEGLKFNLTETPEPDIHQGFRYLLDLLSQPGNQVQISTGSALFIEKHLQILAEFKEKARALYQAEAFTADFQQPLKATKLINDYVSNHTQGKIKELISGLKESTLMVLVNYIYFKGKWKNPFDPNDTFKSEFYLDEKRSVIVSMMKTGYLTTPYFRDEELSCTVVELKYTGNASAMFILPDQGRMQQVEASLQPETLRKWKNSLKPRMIHELRLPKFSISTDYSLEHILPELGIREVFSTHADLSAITGTKDLRVSQVVHKAVLDVAEKGTEAAAATGMAGVGCCAVFDFLEIFFNRPFLMIISDTKAHIALFMAKVTNPERSTNFPNGEGASSQRLESKRLCFGDPLCLIGQ
modifications: C-terminal 3xFLAG tag
notes: purified as C-terminal 3×FLAG protein or expressed from MIGR1 retrovirus in cells and bone-marrow chimeras
Human cathepsin V
  Inhibition of protease by Spi2A (percentage inhibition): extended to all of the lysosomal, papain-like proteases that were examined
Caspase 3
  Inhibition of protease by Spi2A (percentage inhibition): did not extend to any of the caspases tested
Cathepsin B
  Inhibition of protease by Spi2A (percentage inhibition): extended to all of the lysosomal, papain-like proteases that were examined
NF-κB
  Expression of NF-κB complexes (p50/p50, p50/Rel) in nuclei: did not affect
Caspase 8
  Inhibition of protease by Spi2A (percentage inhibition): did not extend to any of the caspases tested
RelA^−/− MEFs
  Appearance of AO-low cells (lysosomal de-acidification): less AO-low cells

From patent US20090324700A1, “METHODS AND COMPOSITIONS FOR THE INHIBITION OF CATHEPSINS” (priority 2003, published 2009)
